This is an account of results in PMC3521757, “Spastin's Microtubule-Binding Properties and Comparison to Katanin” (PLoS ONE, 2012).

In series [1] the target is microtubules (native, from pig brain tubulin) (pig) (UniProt P02550). Nature of the series: single-molecule TIRF microscopy; microtubules attached to the flow cell by anti-tubulin antibody; 5–10 nM GFP-enzyme in solution; 1 mM ATP; landing rates and dwell times from kymographs. The following applies: for landing rate: scale: (10 µm)^−1 ·.
Series [2] shares this target. Nature of the series: single-molecule TIRF microscopy; microtubules attached to the flow cell by anti-tubulin antibody; 5–10 nM GFP-enzyme in solution; 1 mM AMPPNP; landing rates and dwell times from kymographs; dwell times are lower limits. The following applies: for landing rate: scale: (10 µm)^−1 ·.
Series [3] shares this target. Nature of the series: single-molecule TIRF microscopy; microtubules attached to the flow cell; 10 nM GFP-enzyme; buffer 5 with 80 mM NaCl (ionic strength 0.145 M); 1 mM ATP; dwell time is a mean, not an exponential fit. The settings on record: for landing rate: scale: (10 µm)^−1 ·.
For series [4] the target is unchanged. Nature of the series: single-molecule TIRF microscopy; microtubules attached to the flow cell; 10 nM GFP-enzyme; buffer 5 with 300 mM NaCl (ionic strength 0.365 M); 1 mM ATP; mono-exponential lifetime. The settings on record: for landing rate: scale: (10 µm)^−1 ·.
For series [5] the target is unchanged. The experiment in a line: single-molecule TIRF microscopy; microtubules attached to the flow cell; 10 nM GFP-enzyme; buffer 5 with 160 mM NaCl (ionic strength 0.225 M); 1 mM ATP; mono-exponential lifetime. The following applies: for landing rate: scale: (10 µm)^−1 ·.
The target is the same in series [6]. Nature of the series: single-molecule TIRF microscopy; microtubules attached to the flow cell by anti-tubulin antibody; 5–10 nM GFP-enzyme in solution; 1 mM ATP-γS; landing rates and dwell times from kymographs. The following applies: for landing rate: scale: (10 µm)^−1 ·.
For series [7] the target is unchanged. The experiment in a line: co-sedimentation; constant microtubule concentration (1 µM for spastin, 2 µM for katanin), increasing enzyme; 1 mM ATP-γS; BRB80, room temperature, 100,000 g; stoichiometry by extrapolation of the saturation curve.
Series [8] has the same target. Nature of the series: co-sedimentation; constant microtubule concentration (1 µM for spastin, 2 µM for katanin), increasing enzyme; 1 mM ADP; BRB80, room temperature, 100,000 g; stoichiometry by extrapolation of the saturation curve.
The target in series [9] is subtilisin-treated microtubules (pig) (UniProt P02550). Nature of the series: co-sedimentation; fixed E309Q-katanin concentration, variable microtubule concentrations (native or subtilisin-treated, up to 4 µM); 100,000 g, BRB80, room temperature; SDS-PAGE of supernatants and pellets.
subtilisin-treated microtubules (pig), sequence (P02550 whole entry, chain 1 of 2): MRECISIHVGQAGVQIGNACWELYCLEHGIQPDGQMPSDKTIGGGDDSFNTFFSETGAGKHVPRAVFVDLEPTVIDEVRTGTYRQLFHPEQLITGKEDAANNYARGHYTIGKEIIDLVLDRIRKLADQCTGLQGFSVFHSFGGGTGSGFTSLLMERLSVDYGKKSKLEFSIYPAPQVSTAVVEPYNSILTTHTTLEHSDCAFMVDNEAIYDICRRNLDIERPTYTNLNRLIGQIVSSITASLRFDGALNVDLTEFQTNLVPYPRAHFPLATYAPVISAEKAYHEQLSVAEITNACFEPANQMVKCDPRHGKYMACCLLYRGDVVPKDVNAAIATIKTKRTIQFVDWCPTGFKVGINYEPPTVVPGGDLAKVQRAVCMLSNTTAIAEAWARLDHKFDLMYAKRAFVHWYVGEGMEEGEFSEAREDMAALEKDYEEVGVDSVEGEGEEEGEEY
subtilisin-treated microtubules (pig), sequence (Q767L7 whole entry, chain 2 of 2, further chain): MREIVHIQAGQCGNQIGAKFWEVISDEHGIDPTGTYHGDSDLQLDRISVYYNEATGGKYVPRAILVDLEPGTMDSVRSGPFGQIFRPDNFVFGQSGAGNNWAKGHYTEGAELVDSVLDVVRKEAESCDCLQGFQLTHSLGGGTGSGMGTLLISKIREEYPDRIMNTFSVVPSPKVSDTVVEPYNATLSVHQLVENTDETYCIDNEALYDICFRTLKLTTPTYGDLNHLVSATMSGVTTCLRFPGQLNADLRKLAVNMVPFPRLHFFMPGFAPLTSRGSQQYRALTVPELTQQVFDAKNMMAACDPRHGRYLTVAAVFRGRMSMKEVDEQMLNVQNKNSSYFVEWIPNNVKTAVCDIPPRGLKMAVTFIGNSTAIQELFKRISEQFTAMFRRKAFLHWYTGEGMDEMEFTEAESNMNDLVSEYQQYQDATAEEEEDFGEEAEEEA
Series [10] concerns the target microtubules (native, from pig brain tubulin) (pig) (UniProt P02550). The description is as above.
For series [11] the target is unchanged. The experiment in a line: co-sedimentation; constant microtubule concentration (1 µM for spastin, 2 µM for katanin), increasing enzyme; 1 mM ATP; BRB80, room temperature, 100,000 g; stoichiometry by extrapolation of the saturation curve.
Series [12] has the same target. The experiment in a line: co-sedimentation; fixed katanin construct concentration (1 µM), increasing microtubule concentrations (0 to 10 µM); band density fitted to a Hill function.
Series [13] deals with the molecule itself. The experiment in a line: non-reducing SDS-PAGE; coiled coil wild type construct under oxidizing conditions (omission of reducing agents), compared with 1 mM mercapto-ethanol.

Take “GFP-FLAG HsKatanin (full-length katanin p60) (from UniProt O75449 1-491) (enzyme)”: the dwell time in series [1] was 4.02 s; in [2], greater than 246 s; in series [3] it was 7.3 s; in [4], 2.5 s; in series [5], 5.6 s; in series [6] it was 10.1 s. Moreover, the koff/kon in series [1] is 1.06 10 nM 10 µm; in [2] it was 0.118 10 nM 10 µm; in series [3], 0.609 10 nM 10 µm; in series [4], 13.6 10 nM 10 µm; in series [5], 2.82 10 nM 10 µm; in series [6] it was 0.684 10 nM 10 µm. Besides, the landing rate in series [1] came out at 14.1; in [2], 2.06; in series [3] it was 15.8; in [4] it was 1.93; in [5], 4.64; in series [6], 8.73. Also, the stoichiometry N (enzyme∶tubulin) in series [7] was 2.8; in [8] it was 1.1.

In series [9], “katanin E309Q (Walker B mutant) (from UniProt O75449 1-491) (enzyme)” yielded a fold reduction of affinity against native microtubules greater than 10 fold. This molecule had a fraction bound at 4 µM microtubules in series [9] of less than 0.33. For the same molecule, in [10], the half-maximal saturation (microtubule concentration) came to 0.4 µM. Also, the stoichiometry N (enzyme∶tubulin) in series [11] is 3; in [7] it was 2.8; in [8] it was 1.1.

For the molecule “spastin E442Q mutant (from UniProt Q9UBP0 227-616) (domain or fragment)”, the stoichiometry N (enzyme∶tubulin) in series [11] was 2.7; in [7], 2.2; in series [8], 1.3.

“wild type spastin (co-sedimentation assays) (from UniProt Q9UBP0 227-616) (domain or fragment)”: the stoichiometry N (enzyme∶tubulin) in series [7] was 2.1; in series [8] it was 1.4.

B1: Kat2 (domain or fragment)
chain: WQEINVEAKHVKDIMKTLESFKLDSTPLKAAQHDLPASEGEVWSMPVPVERRPSPGPRKRQSSQYSDPKSHGNRPSTTVRVHRSSAQNVHNDRGKAVRCREKKEQNKGREEKNKSPAAVTEPETNK
In series [12], B1 yielded a half-maximal saturation (microtubule concentration) of 0.4 µM.

B2: GFP-Δ227 HsSpastin (domain or fragment)
chain: SESGAVPKRKDPLTHTSNSLPRSKTVMKTGSAGLSGHHRAPSYSGLSMVSGVKQGSGPAPTTHKGTPKTNRTNKPSTPTTATRKKKDLKNFRNVDSNLANLIMNEIVDNGTAVKFDDIAGQDLAKQALQEIVILPSLRPELFTGLRAPARGLLLFGPPGNGKTMLAKAVAAESNATFFNISAASLTSKYVGEGEKLVRALFAVARELQPSIIFIDEVDSLLCERREGEHDASRRLKTEFLIEFDGVQSAGDDRVLVMGATNRPQELDEAVLRRFIKRVYVSLPNEETRLLLLKNLLCKQGSPLTQKELAQLARMTDGYSGSDLTALAKDAALGPIRELKPEQVKNMSASEMRNIRLSDFTESLKKIKRSVSPQTLEAYIRWNKDFGDTTV
For B2, the dwell time in series [1] was 10.1 s; in [2] it was greater than 254 s; in series [3], 9.6 s; in series [4], 4.2 s; in series [5], 6.4 s; in series [6], 55.7 s. Also, the landing rate came out at 22.7 in series [1]; 13.4 in [2]; 24.2 in [3]; 1.61 in series [4]; 4.07 in [5]; 21.2 in series [6].

B3: Kat12 (domain or fragment)
chain: MSLLMISENVKLAREYALLGNYDSAMVYYQGVLDQMNKYLYSVKDTYLQQKWQQVWQEINVEAKHVKDIMKTLESFKLDSTPLKAAQHDLPASEGEVWSMPVPVERRPSPGPRKRQSSQYSDPKSHGNRPSTTVRVHRSSAQNVHNDRGKAVRCREKKEQNKGREEKNKSPAAVTEPETNK
On to B3, for which the half-maximal saturation (microtubule concentration) in series [12] amounted to 0.34 µM.

B4: coiled-coil-Δ227 HsSpastin construct (wild type) (other)
chain: AEECKRRYEKEKEKNARLKGKVEKLEIELARWRASESGAVPKRKDPLTHTSNSLPRSKTVMKTGSAGLSGHHRAPSYSGLSMVSGVKQGSGPAPTTHKGTPKTNRTNKPSTPTTATRKKKDLKNFRNVDSNLANLIMNEIVDNGTAVKFDDIAGQDLAKQALQEIVILPSLRPELFTGLRAPARGLLLFGPPGNGKTMLAKAVAAESNATFFNISAASLTSKYVGEGEKLVRALFAVARELQPSIIFIDEVDSLLCERREGEHDASRRLKTEFLIEFDGVQSAGDDRVLVMGATNRPQELDEAVLRRFIKRVYVSLPNEETRLLLLKNLLCKQGSPLTQKELAQLARMTDGYSGSDLTALAKDAALGPIRELKPEQVKNMSASEMRNIRLSDFTESLKKIKRSVSPQTLEAYIRWNKDFGDTTV
modifications: disulphide bridge between the cysteines introduced in the coiled coil domain (oxidizing conditions)
For B4, the “stoichiometry N” value in series [13] was 2.

As a reminder, the stoichiometry N is a count of units in the complex or per binding partner.
